In the nanobody polyreactivity screen of Harvey et al. (2022):

Experiment: yeast display, Sf9 membrane polyspecificity reagent, FACS + sequencing; frameworks hold sequencing errors
Method in brief: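 Galactose-induced (36–48 hours) yeast carrying a synthetic nanobody display library were exposed to 10% biotinylated, detergent-solubilized Sf9 membrane reagent at 4 °C for 1 hour. FACS followed streptavidin microbead enrichment, using low and high (top ~1%) gates for expression (anti-HA) and reagent binding (streptavidin). Colony PCR, MiSeq 2 × 250 sequencing and CDR-length filtering followed. Labels for polyreactivity reflect the gate of origin.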

Sequence	polyreactivity (PSR sort gate)
QVQLVESGGGLVHAGGSLRLSCAASGRIYRGNAMGWYRQAPGKERELVARITGNDGDTYYADSVKGRFTISRDNEKNTVYLQMKSLKPEDTAVYYCATDTSSYRSRYYYWGQGTQVTVSS	low polyreactivity
QVQLVESGGGLVQAGGSLRISCAASGSTFWYYSMGWYRQAPGKERELVAAITRGGNTNYADSVKGRFTISRDNAKNTVYLQMNSLKPEDTAVYYCNADYKLADYREYNVYSFDYWGQGTQVTVSS	low polyreactivity
QVQLVESGGGLVQAGGSLRLSCAASGRIFGYTMGWYRPAPGKERELVAAISRSAGSTYYADSVKGRFTISRDNAKNTVYLQMNSLKPEDTAVYYCAATGRYYREYDYWGQGTQVTVSS	high polyreactivity
QVQLVESAGGLVQAGGSLRLSCAASGSIFSTYVMGWYRQAPGKERELVAAISRRGGSTYYADSVKGRFTISRDNAKNTVYLQMNSLKPEDTAVSYCAADGTVGRRDYWGQGTQVTVSS	high polyreactivity
QVQLVDSGGGLVQAGGSLRLSCAASGRTFDGYAMGWYRQAPGKERELVAAISRTGGSTYYADSVKGRFTISRENAKNTVYLLMTSLKPEDTAVYYCNAVTLSSTYGGHDYWGQGTQVTVSS	high polyreactivity
QVQLVESGGGLVQAGGSLRLSCAASGRTFAVYAMGWYRQAPGKERELVAAISRRGGSTYYADSVKGRFTISRDNAKNTVYLQMNSLKPEDTAVYYCATDNSQSTYPYDYWGQGTQVTVSS	high polyreactivity
QVQLVESGGGLVQAGGSLRLSCAASGRTIRRYAMGWYRQAPGKERELVAAISYSGGSTYYADSVKGRFTISRDNAKNTVYLQMNSLKPEDTAVYYCAARYLGKKYYYWGQGTQVTVSS	high polyreactivity
QVQLVESGGGLVQAGGSLRLSCAASGGTFPAYAMGWYRQAPGKERELVASISDDDSTYYADSVKGRFTISRDNAKNTVYLQMNSLKPEDTAVYYCNVEYWYYPSVEYYWTAYDYWGQGTQVTVSS	low polyreactivity
QVQLVESGGGLVQAGGSLRLSCAASGRTFSENAMGWYRQAPGKERELVAAISGSGGRTYYADSVKGRFTISRDNAKNTVYLQMNRLKPEDTAVYYCAKVTRYGSTYDYWGQGTQVTVSS	high polyreactivity
QVHLVESGGGLVQAGGSLRLSCAASGFTFVRYAMGWYRQAPGKERELVASISYSGGSTYYADSVKGRFTISRDNAKNTVYLQMNSLKPEDTAVYYCAALHRINTLLLPMDYWGQGTQVTVSS	high polyreactivity
QDQLVESGGGLVQAVGSLRLSCAASGRIFVYNAMGGYRQAPGKEREFVATITSSGGRTYYADSVKGRFTISRDNSKNTVYLQMNSLKPEDTAVYYCAARPQNNGRNPVYRYNYWGQGTQVTVSS	high polyreactivity
QVQLVESGGGLVQAGGSLRLSCAASGFTITNYAMGWYRQAPGKERELVAAISTGGGRTYYADSVKGRFTISRDNAKNTVYLQMYSLKPEDTAVYYCAVVPYNISKTEQPGMDYWGQGTQVTVST	high polyreactivity
QVQLVESGGGLVQAGGSLRLSCAASGRIFTYNAMGWSRQAPGKERELVAAISSSGGSTYYADSVKGRFTISRDIAKYTVYLHMNSLKPEDTAVYYCAADDAGFWYYFYGRYVTFDYWGQGTQVTVSS	low polyreactivity
QVQLVESGGGLVQAGGSLRLSCAASGFIFGGNAMGWYRQAPGKERELVAAVSWIAGSTHYADSVKGRFTISRDNAKNTVYLQMNSLKPEDTAVYYCAADHEGSLSRGFTETDYDYWGQGTQVTVSS	low polyreactivity
QVQLVESGGGLVQAGGSLRLSCAASGSIFYTYVMGWYRQAPRKERELVAAITRAGNTYYADSVKGRFTISRDNAKKTVYLQMNILKPEDTAVYYCAAGRYKPFTYHFDYWGQGTQVTVSS	high polyreactivity
QVQLVESGGGLVQAVRSLRLSCAASGFTFNGNAMGWYRQAPGKDRELVAAISYSGGSTYYADSVKGRFTISRDNAKNTVYLQMNSLKPEDTAVYYCAADRTAYSVRAYTKDHSGHDYWGQGTQVTVSS	low polyreactivity
QVQLVESGGGLVQAGGSLRLSCAASGGTFVYYAMGWYRQAPGKERELVAAISGSGGRTYYADSVKGRFTISRDNAKNTVYLQMNSLKPEDTAVYFCAAVHLNRYWGQGTQVTVSS	high polyreactivity
QVQLVESGGGLVQAGGSLRLSCAASGFTFDKNAMGWYRQAPGKERELVAAINIGSTYYADSVKGRFTISRDNAKNTVYLQMNSLKPEDTAVYYCAKEVPSGYWVNYYYWGQGTQVTVSS	low polyreactivity
QVQLVESGGGLVQAGGSLRLSCAASGGIFYHNAMGWYRQAPGKERELVAAISGRGGRTYYADSVKGRFTISRDNAKNTVYLQMNSLKPEDTAVYYCDADQYKDFDYWGQGTQVTVSS	low polyreactivity
QVQLVESGGCLVQAGGSLRLSCAASGSIFSKNTMGWSRQAPGKDRELVATISIGGGSTYYADSVKGRFTISRDNAKNTVYLQMNSLKPADSAVYYCNASLRRPFSLYYYWGQGTQVTVSS	high polyreactivity
QVQLVESGGGLVQAGGSLRLSCAASGFNFTHYAMGWYRQAPGKERELVAAISRNGGSTYYADSVKGRFTISRDNAKNTVYLQMNSLKPEDTAVYYCAAVRHGVSLAGYYWGQGTQVTVSS	high polyreactivity
QVQLVESGGGLVQAGGSLRLSCAASGGTFRRYAMGWYRQAPGKEREIVAAITISGGNTYYADSVKGRFTISRDNAKNTVYLQMNSLNPEDTAVYYCAADYAYNKYLSVEYWGQGTQVTVSS	low polyreactivity

Sequence	polyreactivity (PSR sort gate)
QVQLVESGGGLVQAGGSLRLSCAASGSTFWYYAMAWYRHAPGKEREMVAAINSDDSTNYADSVKGRFTISRDNAKNTDYLQMNSLKPEDTAVYDCHRGFVYSTTGLWRYYDFDYWGQGTQVTLSS	low polyreactivity
QDLLVESGGGLVQAGGRLRLSCAASGSTFRYYAMGWYRQAPGKERELVAAITNSCGSTNYADSVKGRFTISRDNAKNTVYLQMNSLKPEDTAVYYCNANTWRYFTMGYWGHGTQVTVSS	high polyreactivity
QVQLVESGGGLVQAGGSLRLSCAASGSIFLSYNMGRYRQAPGKERELVAAITSGGSTKYADSVKGRFTISRDNAKNTVYLQMNSLKPEDTAVYYCNATPYSRLGYWGQGTQVTVSS	high polyreactivity
QVQLVESGGGLVQAGGSLRLSCAASGSIFIVNDMGWYRQAPGKERELVAAISGRGGNTNYADSVKVRFTISRDNAKNTVYLQMNSLKPEDTSVYFCAARHTRDYDYWGQGTQVTVSS	high polyreactivity
QVQHVESGGGLVQAGGSLRLSCAASGGTFADYTMGWYRQAPGKERELVAAITSSGGSTYYADSVKGRFTISRDNAKNTVYLQMNSLKTEDTAVYYCAALGYVAMGYWGQGTQVTVSS	high polyreactivity
QVQLVESGGGLVQAGGSLRLSCAASGRTFGTNGMGWYRQAPGKERELVAVITWTGGSTYYADSVKGRFTISRDNAKNTVYLQMNSLKPEDTAVYYCAAKYSHLGYNYWGQGTQVTVSS	high polyreactivity
QVQLVESGGGLVQAGGSLRLSCAASGRIFAGYAMGWYRQAPGKERELVAAISDGGTTNYADSVKGRFTISRDNAKNTVYLQMNSLKPEDTAVYYCAAKSRTYQSYYYWGQGTQVTVSS	low polyreactivity
QVQHVESGGGLVQAGGSLRLSCAASGNIFGLNAMGWYRQAPGKERELVAAISKSGGSTFYADSVKGRFTISRDNAKNTVYLQMNSLKPEDTAVYYCAADHRYHWAYPRGYYYWGQGTQVTVSS	high polyreactivity
QVQLVESGGGLVQAGGSLRLSCAASGRIFYYNAMGWSRQAPGKEWELVAAITYSGTSTYYAASVKGRFTISRDNAKYTVYLQMNSLKPEDTAVDYCNAEGDNRRDRYDYWGQGTQVTVSS	low polyreactivity
QVQLVESGGCLVQAGGSLRLICAASGSTFRRYAMGWYRQAPGKERELVATISKSGGSTYYADSVKGRFTISRDNAKNTVYLQMNSLKPEDTAVYYCAARSFFYRVSDRRAYIDTNGYWGQGTQVTVSS	high polyreactivity
QVQLVESGGGLVQAGGSLRLSCAASGSTFRFYAMGWYRQAPGKERELVAAISKSGGITYYADSVKGRFTISRAHAKNTVYLQMNSLKPEDTSVSYCATVGLLSNFYSRFNYWGQGTPVTVSS	high polyreactivity
QVQLVESGGGLVQAGGSLRLSCAASGRIFFYYAMGWYRQAPGTERELVAAISKSGGRTYYADSVKGRFTISRDNAKNTVYLQMNSLKPEDTAVYYCAAYSAHDSDYWGQGTQVTVSS	high polyreactivity
QVQLVESAGGLVQAGASRRLSCAASGRTVSLYTMGWSRQSPGKESELVASITSSGSTSYADSVKGRFTISRDNAKNTVYLQMNSLKPEDTAVYYCNAAVSYPKYPYVSPGVPSYDYWGQGTQVTVSS	low polyreactivity
QVQLVESGGCLVQAGGSLRLSCAASGFIFSRNAIGWYRQAHGKERELVAAISLRGGSTYYADSVKGRFTISRDYAKNTVYLQMNSLKPEDTAVYYCAAPLFSGYDYWVQGTQVTVSS	low polyreactivity
QFQLVESGGGLVQAGGSLRLSCAASGRIFRSNAMVWYRQAPGKERELVAAISWSGGSTYYADSVKGRFTISRDNAKNTVYLQMNSLKPEDTAVFYCAARYRGSRYDYWGQGTQVTVSS	high polyreactivity
QVQLVESGGGLVQAGGSLRLSCAASGLTFYIYAMGWYRQAPGKERELVASITWSTTSTSYADSVKGRFTISRDNAKNTVYLQLKSLKPEDTAVYYCNADVPGYFLYDDSYEYWGQGTQVTVSS	low polyreactivity
QVQLVESGRGLVQAGGSLRLSCDSSGLTFTYNAMGWYRQAPGKERELVAVISYGGGSTYYADSVKGRFTISRDNAKNTVYLQMNSLNPEDNAVYYCAAVYGGYLYYYGGYAEYDYWGQGTQVTVSS	low polyreactivity
QVQLVESGGGLVQAGGSLRLSCAASGRTFAYNAMGWYRQAPGKERELVAAIRWSADSTYYADSVKGRFTISRDNAKNTVYLQMNSLKPEDTAVYYCARRRYVGAFSVATLDYWGQGTQVTVSS	high polyreactivity
QVQHVESGGGLVQAGCSLRLSCAASGFTFYSYAMGWYSQTPGKERELVASISRTGGGTYYADSVKGSFTISRDNAKNTVSLQMNSLIPVDTAVYYCNASPNIRVRYYYRKYDYWGQGTQVTVSS	high polyreactivity
QVQLVESGGGLVQAGGSLRLSCAASGRTFYNNAMGWDRQAPGKERELVATINNRGGPTYYADSVKGRFTISRDNAQNTVYFQMNSLKPEDTAVYYCAASGWHGYNYWGQGTQVTVSS	high polyreactivity
QVQLVESGGGLVQAGGSLRLSCAASGFIFGGYAMGWYRQAPGKERELVAAITGGGTTYYADSVKGRFTISRDNAKNTVYLQMNSLKPEDTAVYYCAAAYRLGYHKYYYWGQGTQVTVSS	high polyreactivity
